Laboratory results as given in patent US20190234935A1 (Janssen / Centocor, published 2019).

Legend:
Test in all cases: FACS on transfected HEK293F cells
[1] = biological target: T1, N-terminally flag tagged full-length GFRα1 on transiently transfected HEK293F cells (Homo sapiens (Human), UniProt P56159 25-429)
T1 sequence: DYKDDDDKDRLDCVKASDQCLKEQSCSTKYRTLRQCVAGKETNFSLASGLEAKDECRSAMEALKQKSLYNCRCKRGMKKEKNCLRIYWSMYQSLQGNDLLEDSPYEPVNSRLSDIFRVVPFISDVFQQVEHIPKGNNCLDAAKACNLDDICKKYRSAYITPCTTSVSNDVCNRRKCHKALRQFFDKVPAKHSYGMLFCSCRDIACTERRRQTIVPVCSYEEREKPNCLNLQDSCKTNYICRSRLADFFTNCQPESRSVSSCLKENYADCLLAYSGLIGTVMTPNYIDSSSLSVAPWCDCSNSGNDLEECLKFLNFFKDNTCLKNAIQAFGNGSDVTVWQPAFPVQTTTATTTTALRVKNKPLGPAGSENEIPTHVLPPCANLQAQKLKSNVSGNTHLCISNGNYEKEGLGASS
Experimental: (§1) For the confirmation of specific binding of GDF15 to GFRAL, HEK293F cells expressing the N-terminally flag tagged GFRAL, GFRα1, GFRα2, GFRα3 or GFRα4 were incubated with Fc-GDF15 and the binding was analyzed by FACS. Briefly, transiently transfected cells were spun down two days post transfection, washed with 1×BD staining buffer (BD Pharmingen) and treated with 5 μg/ml of Fc-GDF15 by incubating at 4° C. for 1 hour in 1×BD staining buffer (BD Pharmingen). Cells were subsequently washed and stained with the secondary antibody, goat anti-human IgG conjugated with Alexa Fluor 647 (AF647, Life Technologies), at 4° C. for 30 min, for the detection of Fc-GDF15 binding. Cells from the same batch of transfection were also stained with an Fc isotype negative control, and with FITC-labeled anti-flag antibody (Sigma) for the detection of cell surface expression, and DAPI for live/dead staining. The stained cells were analyzed on BD Fortessa LSR.

[2] = biological target: T2, N-terminally flag tagged full-length GFRα2 on transiently transfected HEK293F cells (Homo sapiens (Human), UniProt O00451 22-444)
T2 sequence: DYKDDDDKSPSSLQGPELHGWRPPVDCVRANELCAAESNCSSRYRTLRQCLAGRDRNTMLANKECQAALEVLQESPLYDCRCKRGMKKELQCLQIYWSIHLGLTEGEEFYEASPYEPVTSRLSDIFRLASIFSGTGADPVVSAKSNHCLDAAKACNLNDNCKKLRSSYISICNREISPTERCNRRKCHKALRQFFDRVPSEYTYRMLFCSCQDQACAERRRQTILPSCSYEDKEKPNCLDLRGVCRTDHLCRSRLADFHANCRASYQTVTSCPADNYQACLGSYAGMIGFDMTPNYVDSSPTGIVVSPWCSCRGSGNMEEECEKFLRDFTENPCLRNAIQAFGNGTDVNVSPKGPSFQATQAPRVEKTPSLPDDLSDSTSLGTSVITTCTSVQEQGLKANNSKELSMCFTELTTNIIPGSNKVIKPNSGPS
Experimental: as §1

[3] = biological target: T3, N-terminally flag tagged full-length GFRα3 on transiently transfected HEK293F cells (Homo sapiens (Human), UniProt O60609 32-374)
T3 sequence: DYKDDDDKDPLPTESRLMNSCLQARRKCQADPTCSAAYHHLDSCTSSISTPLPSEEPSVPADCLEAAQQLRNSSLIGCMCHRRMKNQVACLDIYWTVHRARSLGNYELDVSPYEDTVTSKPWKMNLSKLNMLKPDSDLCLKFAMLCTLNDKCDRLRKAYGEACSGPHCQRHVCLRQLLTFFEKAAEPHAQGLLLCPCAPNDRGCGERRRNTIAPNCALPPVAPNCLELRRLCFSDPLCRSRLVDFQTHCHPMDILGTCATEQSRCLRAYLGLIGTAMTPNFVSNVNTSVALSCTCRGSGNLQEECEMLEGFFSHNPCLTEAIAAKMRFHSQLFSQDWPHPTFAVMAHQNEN
Experimental: as §1

[4] = biological target: T4, N-terminally flag tagged full-length GFRα4 on transiently transfected HEK293F cells (Homo sapiens (Human), UniProt Q9GZZ7 21-278)
T4 sequence: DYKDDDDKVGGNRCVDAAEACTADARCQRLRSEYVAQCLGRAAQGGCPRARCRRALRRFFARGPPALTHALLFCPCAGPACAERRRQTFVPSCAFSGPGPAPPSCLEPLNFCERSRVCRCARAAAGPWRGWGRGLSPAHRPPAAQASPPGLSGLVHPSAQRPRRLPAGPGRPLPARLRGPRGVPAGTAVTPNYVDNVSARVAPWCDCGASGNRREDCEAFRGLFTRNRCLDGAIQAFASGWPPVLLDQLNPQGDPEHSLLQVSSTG
Experimental: as §1

- binding result [1]: no binding (tested: 5 µg/ml)
- binding result [2]: no binding (tested: 5 µg/ml)
- binding result [3]: no binding (tested: 5 µg/ml)
- binding result [4]: no binding (tested: 5 µg/ml)
B1: heterodimeric Fc-GDF15 fusion molecule (Fc fusion)
chain 1: CPPCPAPEAAGGPSVFLFPPKPKDTLMISRTPEVTCVVVDVSQEDPEVQFNWYVDGVEVHNAKTKPREEQFNSTYRVVSVLTVLHQDWLNGKEYKCKVSNKGLPSSIEKTISKAKGQPREPQVYTLPPSQEEMTKNQVSLSCAVKGFYPSDIAVEWESNGQPENNYKTTPPVLDSDGSFFLVSRLTVDKSRWQEGNVFSCSVMHEALHNHYTQKSLSLSLGKGSGGGARNGDHCPLGPGRCCRLHTVRASLEDLGWADWVLSPREVQVTMCIGACPSQFRAANMHAQIKTSLHRLKPDTVPAPCCVPASYNPMVLIQKTDTGVSLQTYDDLLAKDCHCI
chain 2: CPPCPAPEAAGGPSVFLFPPKPKDTLMISRTPEVTCVVVDVSQEDPEVQFNWYVDGVEVHNAKTKPREEQFNSTYRVVSVLTVLHQDWLNGKEYKCKVSNKGLPSSIEKTISKAKGQPREPQVYTLPPSQEEMTKNQVSLWCLVKGFYPSDIAVEWESNGQPENNYKTTPPVLDSDGSFFLYSRLTVDKSRWQEGNVFSCSVMHEALHNHYTQKSLSLSLGK
notes: also called Fc-GDF15 ligand
